Results taken from PMC7684303.

Target: MBS complex (membrane-bound sulfane sulfur reductase), monomeric 13-subunit complex (Pyrococcus furiosus)
Assay: cryo-EM structure; MBS purified in DDM, ~5 mg/ml; grids prepared under aerobic conditions; twofold symmetry applied; overall resolution 4.0 Å

Question: With “MBS complex (membrane-bound sulfane sulfur reductase), monomeric 13-subunit complex” as the substance, how does the stoichiometry N read?
Answer: 2
